The labels stand for the following.
T1: extracellular domain (ECD) of human αKlotho, amino acids E34-S981 with C-terminal 6-His tag (R&D Systems … (human, UniProt Q9UEF7 34-981))
T1 construct: range 34-981; also called αKlotho (aa34-981); target antigen
T1 sequence: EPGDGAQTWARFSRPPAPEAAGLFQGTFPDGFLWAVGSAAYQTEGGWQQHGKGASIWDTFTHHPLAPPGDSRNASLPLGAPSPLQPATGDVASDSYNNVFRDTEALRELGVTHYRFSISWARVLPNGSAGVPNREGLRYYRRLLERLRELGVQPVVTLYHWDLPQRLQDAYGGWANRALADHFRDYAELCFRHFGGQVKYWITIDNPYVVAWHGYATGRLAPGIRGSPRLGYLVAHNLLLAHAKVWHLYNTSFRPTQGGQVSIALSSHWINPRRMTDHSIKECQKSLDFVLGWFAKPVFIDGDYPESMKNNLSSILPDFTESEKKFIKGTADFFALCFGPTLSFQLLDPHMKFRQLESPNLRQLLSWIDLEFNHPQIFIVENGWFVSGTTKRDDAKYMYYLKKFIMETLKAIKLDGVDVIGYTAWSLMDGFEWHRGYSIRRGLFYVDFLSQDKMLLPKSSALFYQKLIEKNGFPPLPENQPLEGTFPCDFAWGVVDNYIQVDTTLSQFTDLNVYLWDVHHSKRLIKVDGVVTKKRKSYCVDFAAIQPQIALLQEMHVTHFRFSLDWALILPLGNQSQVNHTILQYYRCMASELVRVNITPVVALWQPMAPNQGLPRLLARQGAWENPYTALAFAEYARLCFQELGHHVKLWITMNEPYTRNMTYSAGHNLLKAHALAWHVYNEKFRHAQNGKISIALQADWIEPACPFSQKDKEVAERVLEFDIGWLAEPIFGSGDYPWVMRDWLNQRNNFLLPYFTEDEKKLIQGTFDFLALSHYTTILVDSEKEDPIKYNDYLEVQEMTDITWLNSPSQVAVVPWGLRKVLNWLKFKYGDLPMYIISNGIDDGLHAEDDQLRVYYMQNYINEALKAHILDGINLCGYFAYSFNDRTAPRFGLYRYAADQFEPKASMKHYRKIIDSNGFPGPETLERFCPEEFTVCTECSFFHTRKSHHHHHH

B1: anti-αKlotho Fab clone 4820 (Fab, V domains shown)
VH: EVQLVESGGGLVQPGGSLRLSCAASGFNISSYYMHWVRQAPGKGLEWVASIYSSYSSTYYADSVKGRFTISADTSKNTAYLQMNSLRAEDTAVYYCARGAWAMDYWGQGTLVTVSS
VL: DIQMTQSPSSLSASVGDRVTITCRASQSVSSAVAWYQQKPGKAPKLLIYSASSLYSGVPSRFSGSRSGTDFTLTISSLQPEDFATYYCQQSPWGAYLITFGQGTKVEIKR
notes: Fab (also as Fab-phage); FLAG tag on light chain; also called sb189
B2: anti-αKlotho Fab clone 4833 (Fab, V domains shown)
VH: EVQLVESGGGLVQPGGSLRLSCAASGFNLSSYYMHWVRQAPGKGLEWVASIYPSYSSTYYADSVKGRFTISADTSKNTAYLQMNSLRAEDTAVYYCARSSYSVYFWWYVSAMDYWGQGTLVTVSS
VL: B1 VL with P92S, W93H, A95H, L97P
notes: Fab (also as Fab-phage); FLAG tag on light chain; also called sb202
B3: anti-αKlotho Fab clone 4829 (Fab, V domains shown)
VH: EVQLVESGGGLVQPGGSLRLSCAASGFNISSYYIHWVRQAPGKGLEWVASIYSSYGYTSYADSVKGRFTISADTSKNTAYLQMNSLRAEDTAVYYCARYSWSPYWWWAYSGLDYWGQGTLVTVSS
VL: DIQMTQSPSSLSASVGDRVTITCRASQSVSSAVAWYQQKPGKAPKLLIYSASSLYSGVPSRFSGSRSGTDFTLTISSLQPEDFATYYCQQGGGLITFGQGTKVEIKR
notes: Fab (also as Fab-phage); FLAG tag on light chain; also called sb198
B4: anti-αKlotho Fab clone 4805 (Fab, V domains shown)
VH: EVQLVESGGGLVQPGGSLRLSCAASGFNLSYYSMHWVRQAPGKGLEWVASISSYYGSTYYADSVKGRFTISADTSKNTAYLQMNSLRAEDTAVYYCARGGGYYSGPYAGFDYWGQGTLVTVSS
VL: DIQMTQSPSSLSASVGDRVTITCRASQSVSSAVAWYQQKPGKAPKLLIYSASSLYSGVPSRFSGSRSGTDFTLTISSLQPEDFATYYCQQSSGWYHFLFTFGQGTKVEIKR
notes: Fab (also as Fab-phage); FLAG tag on light chain; also called sb174
B5: anti-αKlotho Fab clone 4830 (Fab, V domains shown)
VH: EVQLVESGGGLVQPGGSLRLSCAASGFNIYYSSIHWVRQAPGKGLEWVASIYPYYSYTYYADSVKGRFTISADTSKNTAYLQMNSLRAEDTAVYYCARSVASALDYWGQGTLVTVSS
VL: B4 VL with S91Y, G93W, W94Y, Y95W, H96Y, F97S, L98P, F99I
notes: Fab (also as Fab-phage); FLAG tag on light chain; also called sb199
B6: anti-αKlotho Fab clone 4804 (Fab, V domains shown)
VH: EVQLVESGGGLVQPGGSLRLSCAASGFNLYSYSIHWVRQAPGKGLEWVAYISSSSGSTYYADSVKGRFTISADTSKNTAYLQMNSLRAEDTAVYYCARGWGGGYWFYPVYGIDYWGQGTLVTVSS
VL: DIQMTQSPSSLSASVGDRVTITCRASQSVSSAVAWYQQKPGKAPKLLIYSASSLYSGVPSRFSGSRSGTDFTLTISSLQPEDFATYYCQQSSYSLITFGQGTKVEIKR
notes: Fab (also as Fab-phage); FLAG tag on light chain C-terminus; also called sb173
B7: anti-αKlotho Fab clone 4832 (Fab, V domains shown)
VH: EVQLVESGGGLVQPGGSLRLSCAASGFNFSSSSIHWVRQAPGKGLEWVAYISSSYGYTSYADSVKGRFTISADTSKNTAYLQMNSLRAEDTAVYYCARASGWFSHFYPAAVSGMDYWGQGTLVTVSS
VL: B6 VL
notes: Fab (also as Fab-phage); FLAG tag on light chain; also called sb201
B8: anti-αKlotho Fab clone 4807 (Fab, V domains shown)
VH: EVQLVESGGGLVQPGGSLRLSCAASGFNLSSSYMHWVRQAPGKGLEWVASIYPSYGSTSYADSVKGRFTISADTSKNTAYLQMNSLRAEDTAVYYCARGVVPSYYYWFWPYGAIDYWGQGTLVTVSS
VL: B6 VL
notes: Fab (also as Fab-phage); FLAG tag on light chain; also called sb176
B9: anti-αKlotho Fab clone 4823 (Fab, V domains shown)
VH: EVQLVESGGGLVQPGGSLRLSCAASGFNFSSSSIHWVRQAPGKGLEWVAYIYSSYGYTYYADSVKGRFTISADTSKNTAYLQMNSLRAEDTAVYYCARAAHYGYYVHSGLDYWGQGTLVTVSS
VL: B6 VL
notes: Fab (also as Fab-phage); FLAG tag on light chain; also called sb192
B10: anti-αKlotho Fab clone 4828 (Fab, V domains shown)
VH: EVQLVESGGGLVQPGGSLRLSCAASGFNFSSSSIHWVRQAPGKGLEWVASISSSYGYTYYADSVKGRFTISADTSKNTAYLQMNSLRAEDTAVYYCARYVVGGWWYHYGMDYWGQGTLVTVSS
VL: B6 VL
notes: Fab (also as Fab-phage); FLAG tag on light chain; also called sb197

Numbering of substitutions follows the chain as printed.

One experiment concerns the target T1, extracellular domain (ECD) of human …. The experiment can be described thus: SPR, Fab captured by anti-H+L antibody, αKlotho injected. As for the experimental part:
(§1) Affinity estimates for each of the antibodies were determined by surface plasmon resonance (SPR). Fabs were immobilized using an anti-H+L antibody and serial dilutions of αKlotho were injected.
In general terms: In SPR one partner is held on a chip, and binding of the other changes the refractive index at the surface.
Turning to B1, the affinity, expressed as Kd, was 2.7 nM.

On to B2, for which the Kd (usually the equilibrium constant for the complex coming apart) is 1.4 nM.

As to B3, the Kd turned out to be 1.8 nM.

As for B4, the Kd came out at 0.24 nM.

B5: binding was put at a Kd of 2.9 nM.

For the molecule B6, the Kd came to 0.77 nM.

Turning to B7, the dissociation constant Kd is 0.515 nM.

B8 returned a Kd of 6.1 nM.

On to B9, for which the Kd is 1.6 nM.

In turn, B10 returned a Kd of 4.9 nM.

For a further experiment, the target named is T2, bovine serum albumin (bovine, UniProt P02769 25-607).
T2 construct: also called BSA
T2 sequence (P02769 25-607 limits assumed): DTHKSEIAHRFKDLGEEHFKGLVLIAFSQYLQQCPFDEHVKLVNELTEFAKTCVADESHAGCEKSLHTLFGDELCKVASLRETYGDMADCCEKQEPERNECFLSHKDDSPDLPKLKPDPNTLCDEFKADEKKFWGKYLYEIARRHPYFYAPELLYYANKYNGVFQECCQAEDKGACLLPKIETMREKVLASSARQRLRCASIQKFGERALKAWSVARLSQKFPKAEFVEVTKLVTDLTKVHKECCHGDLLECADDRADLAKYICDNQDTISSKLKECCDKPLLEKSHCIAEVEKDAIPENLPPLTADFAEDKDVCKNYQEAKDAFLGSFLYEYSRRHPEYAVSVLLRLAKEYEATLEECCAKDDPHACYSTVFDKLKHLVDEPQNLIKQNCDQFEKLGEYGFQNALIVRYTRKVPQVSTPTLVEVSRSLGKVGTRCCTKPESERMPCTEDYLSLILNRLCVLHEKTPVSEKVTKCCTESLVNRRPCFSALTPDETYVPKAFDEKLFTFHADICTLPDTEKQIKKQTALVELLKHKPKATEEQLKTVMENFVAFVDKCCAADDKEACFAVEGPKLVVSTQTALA
The experiment can be described thus: Fab ELISA, purified Fab 5 ug/ml on immobilised BSA, anti-Flag-HRP, A450. On the procedure: FIG. 10 is a graph showing absorbance values of Fab ELISAs with additional αKlotho antibodies. Purified Fabs [5 ug/ml] were incubated with immobilized αKlotho (1 ug/ml) or bovine serum albumin (BSA), as a negative control. After washing off unbound Fab, bound Fab were detected using an HRP-conjugated anti-Flag anti-body (Fabs have Flag-tag on the light chain). Colorimetric HRP reagents allow for absorbance readings at 450 nm.
For orientation: ELISA stands for enzyme-linked immunosorbent assay.
On to B1, for which the binding result is on record as “no binding (tested: 5 ug/ml)”.

Regarding B2, the binding result is “no binding (tested: 5 ug/ml)”.

As for B3, the binding result was “no binding (tested: 5 ug/ml)”.

B5: the binding result is on record as “no binding (tested: 5 ug/ml)”.

For the molecule B7, the binding result is “no binding (tested: 5 ug/ml)”.

B9: the binding result was “no binding (tested: 5 ug/ml)”.

Consider B10, for which the binding result is listed as “no binding (tested: 5 ug/ml)”.

The target in the next experiment is T1, extracellular domain (ECD) of human …. The experiment can be described thus: SPR, Fab captured by anti-H+L IgG, αKlotho injected at 50 to 6.25 ug/ml, Langmuir fit [continued]. On the procedure: as §1
On to B1, for which the Kd was 1.48 nM; the koff (as a rule, the rate constant with which the complex falls apart) stood at 0.00116 s⁻¹; the kon (usually a measure of how fast the partners come together) is 780000 M⁻¹ s⁻¹.

With B2, binding was characterised by a dissociation constant (Kd) of 0.703 nM, the koff turned out to be 0.000519 s⁻¹ and the kon is 739000 M⁻¹ s⁻¹.

B3 gave a Kd of 0.907 nM, a koff of 0.000614 s⁻¹ and a kon of 678000 M⁻¹ s⁻¹.

In turn, B5 came in with a dissociation constant (Kd) of 1.53 nM, a koff of 0.00113 s⁻¹ and a kon of 741000 M⁻¹ s⁻¹.

B7 registered a Kd of 0.123 nM, a koff of 4.61e-05 s⁻¹ and a kon of 374000 M⁻¹ s⁻¹.

For B9, the Kd was determined as 0.991 nM, the koff came to 0.000744 s⁻¹ and the kon worked out at 750000 M⁻¹ s⁻¹.

Turning to B10, the Kd was 2.48 nM, the koff turned out to be 0.000782 s⁻¹ and the kon is 315000 M⁻¹ s⁻¹.

The next experiment shares this target. As to the kind of experiment: SPR, Fab captured by anti-H+L IgG, αKlotho injected at 50 to 6.25 ug/ml, Langmuir fit. On the procedure:
as §1
In the case of B4, the affinity, expressed as Kd, was 0.117 nM; the off-rate (koff) came out at 0.000183 s⁻¹; the kon is 1.57e+06 M⁻¹ s⁻¹.

Consider B6, for which binding was put at a Kd of 0.516 nM, the koff was 0.000738 s⁻¹ and the kon came out at 1.43e+06 M⁻¹ s⁻¹.

With B8, binding was put at a Kd of 3.5 nM, the koff stood at 0.00244 s⁻¹ and the kon worked out at 698000 M⁻¹ s⁻¹.

Values taken from patent publication US20190041402A1 (GOVERNING COUNCIL OF THE UNIVERSITY OF TORONTO, published 2019).
